According to patent publication US8841085 (KOREA INSTITUTE OF SCIENCE AND TECHNOLOGY, dated 2014):
Read-outs that look alike come from different tables or passages of the source.

How the values were obtained:
Assay in all cases: cell-based or functional assay
MMP-2 [1] = target: MMP-2
MMP-3 [2] = target: MMP-3
MMP-9 [3] = target: MMP-9
MMP-13 [4] = target: MMP-13
MMP-7 [5] = target: T1, MMP-7
T1 sequence (P09237 95-267, species assumed, looked up): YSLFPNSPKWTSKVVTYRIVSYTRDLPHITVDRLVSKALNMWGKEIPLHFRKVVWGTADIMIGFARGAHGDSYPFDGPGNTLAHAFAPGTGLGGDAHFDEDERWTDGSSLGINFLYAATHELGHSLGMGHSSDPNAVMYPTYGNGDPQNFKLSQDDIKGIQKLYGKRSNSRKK

MMP-2 [6] = target: MMP-2; remark: listed apart in the source
MMP-3 [7] = target: MMP-3; remark: listed apart in the source
MMP-9 [8] = target: MMP-9; remark: listed apart in the source
MMP-13 [9] = target: MMP-13; remark: listed apart in the source
MMP-7 [10] = target: T1, MMP-7; remark: listed apart in the source
MMP-2 [11] = target: MMP-2; remark: listed apart in the source
MMP-3 [12] = target: MMP-3; remark: listed apart in the source
MMP-9 [13] = target: MMP-9; remark: listed apart in the source
MMP-13 [14] = target: MMP-13; remark: listed apart in the source
MMP-7 [15] = target: T1, MMP-7; remark: listed apart in the source
MMP-2 [16] = target: MMP-2; remark: listed apart in the source
MMP-3 [17] = target: MMP-3; remark: listed apart in the source
MMP-9 [18] = target: MMP-9; remark: listed apart in the source
MMP-13 [19] = target: MMP-13; remark: listed apart in the source
MMP-7 [20] = target: T1, MMP-7; remark: listed apart in the source

B1: PN2 (P2: Cy5.5-Gly-Val-Pro-Leu-Ser-Leu-Thr-Met-Gly-Lys(BHQ3)-Gly-Gly-COOH conjugated to glycol chitosan-bile acid nanoparticle) (peptide)
peptide: {Cy5.5}-GVPLSLTMGK(BHQ3)GG-{glycol chitosan‑cholanic acid nanoparticle}
modifications: not fully specified; printed as Cy5.5-Gly-Val-Pro-Leu-Ser-Leu-Thr-Met-Gly-Lys(BHQ3)-Gly-Gly-COOH
MMP-2 [1]
  fluorescent intensity (FI) at 0 min: 271
  fluorescent intensity (FI) at 10 min: 245
  fluorescent intensity (FI) at 20 min: 350
  fluorescent intensity (FI) at 30 min: 280
  fluorescent intensity (FI) at 40 min: 335
  fluorescent intensity (FI) at 50 min: 426
  fluorescent intensity (FI) at 60 min: 494
MMP-3 [2]
  fluorescent intensity (FI) at 0 min: 336
  fluorescent intensity (FI) at 10 min: 226
  fluorescent intensity (FI) at 20 min: 408
  fluorescent intensity (FI) at 30 min: 843
  fluorescent intensity (FI) at 40 min: 946
  fluorescent intensity (FI) at 50 min: 1070
  fluorescent intensity (FI) at 60 min: 1230
MMP-9 [3]
  fluorescent intensity (FI) at 0 min: 182
  fluorescent intensity (FI) at 10 min: 186
  fluorescent intensity (FI) at 20 min: 186
  fluorescent intensity (FI) at 30 min: 187
  fluorescent intensity (FI) at 40 min: 239
  fluorescent intensity (FI) at 50 min: 233
  fluorescent intensity (FI) at 60 min: 248
MMP-13 [4]
  fluorescent intensity (FI) at 0 min: 287
  fluorescent intensity (FI) at 10 min: 724
  fluorescent intensity (FI) at 20 min: 1060
  fluorescent intensity (FI) at 30 min: 1230
  fluorescent intensity (FI) at 40 min: 1350
  fluorescent intensity (FI) at 50 min: 1360
  fluorescent intensity (FI) at 60 min: 1370
MMP-7 [5]
  fluorescent intensity (FI) at 0 min: 328
  fluorescent intensity (FI) at 10 min: 653
  fluorescent intensity (FI) at 20 min: 993
  fluorescent intensity (FI) at 30 min: 1160
  fluorescent intensity (FI) at 40 min: 1250
  fluorescent intensity (FI) at 50 min: 1310
  fluorescent intensity (FI) at 60 min: 1280
MMP-2 [6]
  fluorescent intensity (FI) recovered after 60 minutes, fold: 1.8 times
MMP-3 [7]
  fluorescent intensity (FI) recovered after 60 minutes, fold: 3.6 times
MMP-9 [8]
  fluorescent intensity (FI) recovered after 60 minutes, fold: 1.3 times
MMP-13 [9]
  fluorescent intensity (FI) recovered after 60 minutes, fold: 4.8 times
MMP-7 [10]
  fluorescent intensity (FI) recovered after 60 minutes, fold: 3.9 times

B2: PN1 (P1: Cy5.5-Gly-Pro-Leu-Gly-Val-Arg-Gly-Lys(BHQ3)-Gly-Gly-COOH conjugated to glycol chitosan-bile acid nanoparticle) (peptide)
peptide: {Cy5.5}-GPLGVRGK(BHQ3)GG-{glycol chitosan‑cholanic acid nanoparticle}
modifications: not fully specified; printed as Cy5.5-Gly-Pro-Leu-Gly-Val-Arg-Gly-Lys(BHQ3)-Gly-Gly-COOH
MMP-2 [6]
  fluorescent intensity (FI) recovered after 60 minutes, fold: 9.7 times
MMP-3 [7]
  fluorescent intensity (FI) recovered after 60 minutes, fold: 2 times
MMP-9 [8]
  fluorescent intensity (FI) recovered after 60 minutes, fold: 9.2 times
MMP-13 [9]
  fluorescent intensity (FI) recovered after 60 minutes, fold: 12.3 times
MMP-7 [10]
  fluorescent intensity (FI) recovered after 60 minutes, fold: 1 times
MMP-2 [11]
  fluorescent intensity (FI) at 0 min: 379
  fluorescent intensity (FI) at 10 min: 952
  fluorescent intensity (FI) at 20 min: 1720
  fluorescent intensity (FI) at 30 min: 2390
  fluorescent intensity (FI) at 40 min: 2920
  fluorescent intensity (FI) at 50 min: 3210
  fluorescent intensity (FI) at 60 min: 3660
MMP-3 [12]
  fluorescent intensity (FI) at 0 min: 307
  fluorescent intensity (FI) at 10 min: 285
  fluorescent intensity (FI) at 20 min: 363
  fluorescent intensity (FI) at 30 min: 421
  fluorescent intensity (FI) at 40 min: 506
  fluorescent intensity (FI) at 50 min: 537
  fluorescent intensity (FI) at 60 min: 630
MMP-9 [13]
  fluorescent intensity (FI) at 0 min: 350
  fluorescent intensity (FI) at 10 min: 680
  fluorescent intensity (FI) at 20 min: 1350
  fluorescent intensity (FI) at 30 min: 2010
  fluorescent intensity (FI) at 40 min: 2250
  fluorescent intensity (FI) at 50 min: 2850
  fluorescent intensity (FI) at 60 min: 3220
MMP-13 [14]
  fluorescent intensity (FI) at 0 min: 665
  fluorescent intensity (FI) at 10 min: 1930
  fluorescent intensity (FI) at 20 min: 3930
  fluorescent intensity (FI) at 30 min: 5290
  fluorescent intensity (FI) at 40 min: 6510
  fluorescent intensity (FI) at 50 min: 7610
  fluorescent intensity (FI) at 60 min: 8180
MMP-7 [15]
  fluorescent intensity (FI) at 0 min: 278
  fluorescent intensity (FI) at 10 min: 288
  fluorescent intensity (FI) at 20 min: 287
  fluorescent intensity (FI) at 30 min: 290
  fluorescent intensity (FI) at 40 min: 294
  fluorescent intensity (FI) at 50 min: 300
  fluorescent intensity (FI) at 60 min: 302

B3: PN3 (P3: Cy5.5-Gly-Pro-Leu-Gly-Met-Arg-Gly-Leu-Gly-Lys(BHQ3)-Gly-Gly-COOH conjugated to glycol chitosan-bile acid nanoparticle) (peptide)
peptide: {Cy5.5}-GPLGMRGLGK(BHQ3)GG-{glycol chitosan‑cholanic acid nanoparticle}
modifications: not fully specified; printed as Cy5.5-Gly-Pro-Leu-Gly-Met-Arg-Gly-Leu-Gly-Lys(BHQ3)-Gly-Gly-COOH
MMP-2 [16]
  fluorescent intensity (FI) at 0 min: 77.4
  fluorescent intensity (FI) at 10 min: 91
  fluorescent intensity (FI) at 20 min: 125
  fluorescent intensity (FI) at 30 min: 151
  fluorescent intensity (FI) at 40 min: 189
  fluorescent intensity (FI) at 50 min: 238
  fluorescent intensity (FI) at 60 min: 287
MMP-3 [17]
  fluorescent intensity (FI) at 0 min: 102
  fluorescent intensity (FI) at 10 min: 128
  fluorescent intensity (FI) at 20 min: 143
  fluorescent intensity (FI) at 30 min: 174
  fluorescent intensity (FI) at 40 min: 200
  fluorescent intensity (FI) at 50 min: 217
  fluorescent intensity (FI) at 60 min: 249
MMP-9 [18]
  fluorescent intensity (FI) at 0 min: 101
  fluorescent intensity (FI) at 10 min: 106
  fluorescent intensity (FI) at 20 min: 109
  fluorescent intensity (FI) at 30 min: 114
  fluorescent intensity (FI) at 40 min: 128
  fluorescent intensity (FI) at 50 min: 130
  fluorescent intensity (FI) at 60 min: 133
MMP-13 [19]
  fluorescent intensity (FI) at 0 min: 101
  fluorescent intensity (FI) at 10 min: 131
  fluorescent intensity (FI) at 20 min: 166
  fluorescent intensity (FI) at 30 min: 234
  fluorescent intensity (FI) at 40 min: 281
  fluorescent intensity (FI) at 50 min: 355
  fluorescent intensity (FI) at 60 min: 456
MMP-7 [20]
  fluorescent intensity (FI) at 0 min: 104
  fluorescent intensity (FI) at 10 min: 90.1
  fluorescent intensity (FI) at 20 min: 87.6
  fluorescent intensity (FI) at 30 min: 87
  fluorescent intensity (FI) at 40 min: 91.5
  fluorescent intensity (FI) at 50 min: 94.9
  fluorescent intensity (FI) at 60 min: 86.3
MMP-2 [6]
  fluorescent intensity (FI) recovered after 60 minutes, fold: 3.7 times
MMP-3 [7]
  fluorescent intensity (FI) recovered after 60 minutes, fold: 2.4 times
MMP-9 [8]
  fluorescent intensity (FI) recovered after 60 minutes, fold: 1.3 times
MMP-13 [9]
  fluorescent intensity (FI) recovered after 60 minutes, fold: 4.3 times
MMP-7 [10]
  fluorescent intensity (FI) recovered after 60 minutes, fold: 0.8 times
